Results from patent publication US20150139900A1 (BIOARCTIC NEUROSCIENCE, published 2015).

Tests used:
α-synuclein monomers = α-synuclein monomers (human, UniProt P37840 1-140); assay: competition ELISA, antigen in solution against plate coated with protofibrils
Method: (§1) Specifically, a high-binding ELISA microtiter plate was coated with 100 μl/well of 1 μg/ml of α-synuclein protofibril, diluted in 1×PBS, sealed with adhesive sealer and incubated overnight at +4° C. Then, the coating solution was discarded and the residual binding capacity of the plate was blocked by adding 200 μl/well of PBS-Tween 20 (0.05%). The sealed plate was incubated for 60 min at room temperature (R.T.) by shaking at 900 rpm.
(§2) Meanwhile, peptide solution was prepared in 1×PBS-Tween 20 (0.05%) by diluting α-synuclein monomers or protofibril to a concentration of 140 nM. A 10-step 3× dilution series of α-synuclein monomers and protofibrils was performed in a volume of 50 μl in a round bottomed, low protein binding microtiter plate. To this solution, 50 μl of the tested antibody diluted in PBS-Tween 20 (0.05%) to a concentration of 100 ng/ml was added and allowed to interact for 60 min at R.T. by shaking at 900 rpm. Sub sequentially, these pre-incubated samples were added to the washed (3× wash) coated high-binding plate and allowed to incubate for 15 min at R.T. without shaking. The ELISA plate was then washed to remove unbound antibodies.
(§3) Finally, the ELISA plate was washed to remove unbound antibodies and 100 μl of ALP-substrate were added to each well. The plate was kept dark during incubation at R.T. until a yellow color developed. Absorbance values were measured on continuous mode at a wavelength of 405 nm every 15 minutes up to 120 minutes.

[1] = target: T1, HNE-stabilized human α-synuclein protofibrils (human, UniProt P37840 1-140); assay: competition ELISA
[2] = target: ONE-stabilized human α-synuclein protofibrils (human, UniProt P37840 1-140); assay: competition ELISA
[3] = target: T1, HNE-stabilized human α-synuclein …; assay: competition ELISA, antigen in solution against plate coated with protofibrils
Method: as §1, §2, §3

Measured: binding result

B1: mAb38F11/2-8 (antibody, V domains shown)
VH: EVMLVESGGGLVKPGGSLKLSCAASGFTFSSYAMSWVRQTPEKRLEWVATISNGGSYTYYPDSVKGRFTISRDNAKNTLYLQMSSLRSEDTAMYYCARHSDYSGAWFAYWGQGTLVTVSA
VL: QIVLTQSPAIMSASPGEKVTISCSASSSVSYMYWYQQKPGSSPKPWIYRTSNLASGVPARFSGSGSGTSYSLTISSMEAEDAATYYCQQYHSYPYTFGGGTKLEIK
notes: Mouse monoclonal antibody from hybridoma; also called BA3
binds: α-synuclein monomers | [1] | [2]

B2: mAb49/G (antibody, V domains shown)
VH: EVQLVETGGGLVQPKGSLKLSCATSGFTFNTYAMNWVRQAPGKGLEWVARIRTKSNDYATYYADSVKGRITISRDDSQSMLYLQMNNLKTEDTAMYYCVRVGYRPYAMDYWGQGTSVTVSS
VL: DVLMTQTPLSLPVSLGDQASISCRSSQNIVHSNGNTYLEWYLQKPGQSPTLLIYKVSNRFSGVPDRFSGSGSGTDFTLKISRVEAEDLGVYYCFQGSHVPLTFGAGTKLELK
notes: Mouse monoclonal antibody from hybridoma, detected with anti-mouse IgG; constant regions are not; also called BA1
binds: α-synuclein monomers | [3] | [2]

B3: mAb48B11/8 (antibody, V domains shown)
VH: EVQLQESGPSLVKPSQTLSLTCSVTGDSFTSGYWNWIRKFPGNKLEYMGYIRYSGNTYYNPSLKSRISITRDTSKNQYYLQLISVTTEDTATFYCARSYYDYDRAWFAYWGQGALVTVSA
VL: DVVMTQTPLSLPVSLGDQASISCRSSQSLVHSNGNTYLHWYLQKPGQSPKLLIYKVSNRFSGVPDRFSGSGSGTDFTLKISRVEAEDLGVYFCSQSTHVPWTFGGGTKLEIK
notes: Mouse monoclonal antibody from hybridoma; also called BA4
binds: α-synuclein monomers | [1] | [2]
